From patent US20150307628 come the findings set out here.

Data set [1] can be described thus: co-expression in HEK293F, protein A purification, non-reducing SDS-PAGE, band density (ImageJ); mean ± S.E.M.
Data set [2] deals with T1, dummy-Fc heavy chain constant region with CH3B of mutant EW-RVT (S-S) (Q347R/S354C/D399V/F405T).
T1 chain: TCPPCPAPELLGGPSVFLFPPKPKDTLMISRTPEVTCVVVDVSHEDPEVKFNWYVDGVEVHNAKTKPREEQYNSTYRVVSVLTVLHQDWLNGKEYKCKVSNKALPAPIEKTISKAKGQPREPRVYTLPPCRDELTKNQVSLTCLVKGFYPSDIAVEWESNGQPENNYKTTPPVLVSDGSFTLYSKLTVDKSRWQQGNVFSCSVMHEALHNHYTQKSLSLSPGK
The description is as above.

The target of data set [3] is T2, dummy-Fc heavy chain constant region with CH3B of mutant EEW-RVT (Q347R/D399V/F405T).
T2 chain: T1 chain with C130S
Nature of the data set: repeated expression and purification, SDS-PAGE band density (ImageJ).

In data set [4] the target is T2, dummy-Fc heavy chain constant region …. Kind of data set: co-expression in HEK293F, protein A purification, non-reducing SDS-PAGE, band density (ImageJ); mean ± S.E.M.
Data set [5] has as its target T3, dummy-Fc heavy chain constant region with CH3B of mutant SW-WVT (S-S) (Y349C/E357W/D399V/F405T).
T3 chain: T1 chain with R123Q, Y125C, C130S, E133W
The data set is described as above.

Numbering of substitutions follows the chain as printed. In names and notes the source's numbering stands.

B1: hAY4a scFv-Fc heavy chain with CH3A of mutant EW-RVT (S-S) (Y349C/K360E/K409W) (protein)
chain: T1 chain with R123Q, Y125C, C130S, K136E, V175D, T181F, K185W
With B1, in data set [1], the Heterodimer yields, AA Homodimer (CH3A:CH3A) (scFv-Fc)2 worked out at 0.6%. In data set [2], the Heterodimer yields, AB Heterodimer (CH3A:CH3B) (scFv-Fc)(Fc) was determined as 94.2%.

B2: dummy-Fc heavy chain constant region with CH3B of mutant EW-RVT (Q347R/D399V/F405T) (protein)
chain: T1 chain with C130S
In data set [1], B2 came in with a Heterodimer yields, BB Homodimer (CH3B:CH3B) (Fc)2 of 1.6%.

B3: dummy-Fc heavy chain constant region with CH3B of mutant EW-RVT (S-S) (Q347R/S354C/D399V/F405T) (protein)
chain: T1 chain
B3 returned a Heterodimer yields, BB Homodimer (CH3B:CH3B) (Fc)2 in data set [1] of 2.2%.

B4: dummy-Fc heavy chain constant region with CH3B of mutant SW-WVT (E357W/D399V/F405T) (protein)
chain: T1 chain with R123Q, C130S, E133W
As to B4, the Heterodimer yields, BB Homodimer (CH3B:CH3B) (Fc)2 in data set [1] was determined as 1.7%.

B5: dummy-Fc heavy chain constant region with CH3B of mutant SW-WVT (S-S) (Y349C/E357W/D399V/F405T) (protein)
chain: T1 chain with R123Q, Y125C, C130S, E133W
In data set [1], B5 came in with a Heterodimer yields, BB Homodimer (CH3B:CH3B) (Fc)2 of 0.8%.

B6: dummy-Fc heavy chain constant region with CH3B of mutant EEW-RVT (Q347R/D399V/F405T) (protein)
chain: T1 chain with C130S
With B6, the Heterodimer yields, BB Homodimer (CH3B:CH3B) (Fc)2 in data set [1] stood at 6.3%.

B7: hAY4a scFv-Fc heavy chain with CH3A of mutant EEW-RVT (Q347E/K360E/K409W) (protein)
chain: T1 chain with R123E, C130S, K136E, V175D, T181F, K185W
For B7, in data set [3], the “yield of formation of the heterodimer” value is on record as “about 90 to 95%”. The protein further displayed a Heterodimer yields, AB Heterodimer (CH3A:CH3B) (scFv-Fc)(Fc) in data set [4] of 90.9%.

B8: hAY4a scFv-Fc heavy chain with CH3A of mutant SW-WVT (S-S) (Y349S/S354C/K409W) (protein)
chain: T1 chain with R123Q, Y125S, V175D, T181F, K185W
As to B8, the Heterodimer yields, AB Heterodimer (CH3A:CH3B) (scFv-Fc)(Fc) in data set [5] came to 98.6%.
